The values below come from a protein production outcome set (Wang et al. 2014).

The series can be described thus: label from the status in PepcDB records.
Regarding “MKEFFKMFFASILGVITAGIILFCIFLFIFFGIVAGIASKATGGTIPKIEANSILHIDNSSFPEIVSANPWSMLTGKDESVSLSQAVEAIGQAKNNPNITGIFLDLDNLSVGMASAEELRRALQDFKMSGKFVVSYADRYTQKGYYLSSIADKLYLNPKGMLGLIGIATQTMFYKDALDKFGVKMEIFKVGTYKAAVEPFMLNRMSDANREQITTYINGLWDKITSDIAESRKTAMDSVKMFADKGEMFGLAEKAVEMKLVDELAYRTDVEKELKKMSQRGEKDELRFVSLSQVLANGPMNKTKGSRIAVLFAEGEITEEIIKKPFDTDGSSITQELAKEIKAAADDDDIKAVVLRVNSPGGSAFTSEQIWKQVADLKAKKPIVVSMGDVAASGGYYIACAANSIVAEHTTLTGSIGIFGMFPNFAGVAKKIGVNMDVVQTSKYADLGNTFAPMTVEDRALIQRYIEQGYDLFLTRVSEGRNRTKAQIDSIAQGRVWLGDKALALGLVDELGGLDTAIKRAAKLAQLGGNYSIEYGKTKRNFFEELLSSSAADMKSAILSTILSDPEIEVLRELRSMPPRPSGIQARLPYYFMPY”, the protein production result is “failed”. Next, “PRAAGHSEEVLEREASFSLTTIDGEVISLNNVGGDVVILWFMAAWCPSCVYMADLLDRLTEKYREISVIAIDFWTAEALKALGLNKPGYPPPDTPEMFRKFIANYGDPSWIMVMDDGSLVEKFNVRSIDYIVIMDKSSNVLYAGTTPSLGELESVIKSVQGG”: “not failed”; “MGLKGFAEGGIASIVAGCSTHPLDLIKVRMQLQGESAPIQTNLRPALAFQTSTTVNAPPLRVGVIGVGSRLIREEGMRALFSGVSATVLRQTLYSTTRMGLYDIIKGEWTDPETKTMPLMKKIGAGAIAGAIGAAVGNPADVAMVRMQADGRLPLTDRRNYKSVLDAITQMIRGEGVTSLWRGSSLTINRAMLVTSSQLASYDSVKETILEKGLLKDGLGTHVSASFAAGFVASVASNPVDVIKTRVMNMKVVAGVAPPYKGAVDCALKTVKAEGIMSLYKGFIPTVSRQAPFTVVLFVTLEQVKKLFKDYDF”: “failed”; “LPSDVTEGKTVFIRNLSFDSEEEALGEVLQQFGDLKYVRVVLHPDTEHSKGCAFAQFMTQEAAQKCLAAASLEAEGGGLKLDGRQLKVDLAVTRDEAA”: “not failed”. For the sequence “MTSQGRAAMVRRMHDPQQPIRWRDLDLDPTHWVREILRVLGLALSRLWGRDVMLYVGGVSFFALLAVFPGLAILIGLYSLFLTPETAAWQAVKLAELIPSGARSIVQDELSRLAHAPGQTISLQSGVVLIVGAYAAHRGFKALLAGLSFIHDEENQRGFLGFNLMALLVLMAAFGLLFIMSGIFLTLRLLGTALELRPLAGVSWIQSEWTWASFGIVVGMSLVYRYAMSRQIVGWRASIAGGVAAAALCVFMSWASAFYVEKVVHLGATYGSVSAVIIFLIWLSWSVNAIFFGGALATEVEIALDERPRALLEGPRPIALKAPSESES”, the protein production result is listed as “failed”. Next, “VIAAHGWAGDATVWRAWQQRFEARGWHWDAIERGYGQREPHQPSWAELPGQRLVIAHSLGLHLLPEKVLQQADAVVSLAGFAAFVPAGAAGRALGVALKGMASCLGTSDEPAMLRKFLSRCASPLPLSALPNNPLLRGMHPSGRQRLQDDLVLLQQCQSLPDGWPEGASVLVVQGEQDAIVCPDSRTQLLQALPPSRTDHRLRPDEGHAVVTPAVLDLVVRWAGN”: “failed”. With “MVMSIEASCHCGETVFEVTEAPSSVTRCTCSLCAKRGSLWAYYKPAQFRLLSPPENVTTYLWGSRTVKHHFCASCGCGTYSESPDWSTGKPDFDNPKVAVNARLFDDFDLDAVPVNMIDGKNLWLEHHHHHH” the entry was “not failed”.

For the sequence “MNIRMGTKGKRPLRSLTPRDKIHAIQRIHDGESKASVARDIGVPESTLRGWCKNEDKLRFMSRQSATDNLCADALGDKMDGGGGGGGGAGGGGLLGPPEKRQRLDGALPLNFSNKLKFDELAFKRSPLNGLDYSTNKNLADLGYNGLPVDYAAFNGGVKAKVFGADINRPAADPSLNAISPLSSLTHLSGLTGISQSPLAISFNELTTNLNLLAQLNPGLAAMSGLNSF”, the protein production result is “not failed”. Regarding “MNKLNIKEYKTKAGEVRYILRGAYIGTDVLTGKQIKTDIRGRTKTGVKNELERLKNNFKKNGNTKGKESLETFEEVAESFFELYKLQRKIGSIDQMRSNLDNYTLPAFGNKRISKITTAQIQQQVIKWGKSAAAPLNGRQKRTTGQAKRYKLQFNIINRIFQHALSLGIIENNPCQSVIVPQVKVEQAKKEIKFYKKSELAKLFNYLESLKSGQWSNEYFKALLRLLVASGLRIGEAMALSWSDINFQNQTVSVSKTTVRRFQIQDTPKSNKSNRIISIDDKAIYVLKSWYFFQKKHFMKLGNPQQNLVFPKIEGGVMDYHNLIYKLNNIIKNAELPLLSFHGFRRSHASLCLNAEMSYKVIQERLGHSKLQLTMDLYSHLEPEKKNKELELFTKYANF”, the protein production result is given as “failed”. Next, “MPLPADPSPTLSAYAHPERLVTADWLSAHMGAPGLAIVESDEDVLLYDVGHIPGAVKIDWHTDLNDPRVRDYINGEQFAELMDRKGIARDDTVVIYGDKSNWWAAYALWVFTLFGHADVRLLNGGRDLWLAERRETTLDVPTKTCTGYPVVQRNDAPIRAFRDDVLAILGAQPLIDVRSPEEYTGKRTHMPDYPEEGALRAGHIPTAVHIPWGKAADESGRFRSREELERLYDFINPDDQTVVYCRIGERSSHTWFVLTHLLGKADVRNYDGSWTEWGNAVRVPIVAGEEPGVVPVV”: “not failed”. Next, “MVFIDNLGLMLFILPLVSVLIAYTTVQAFIGFRKTGYEAIKRSLDDSILPAAILGTIIIILSLWGEFSWTLPGSYNILFYDVYLLLGITILSYSVTVYMGKRLQSTGIFALFVGLITIYYGASGYNLGLTKEPLALLALYTTYGIAGILGYPVTLALDRLRDQQGVKDPKLEGWMYAFFILFWIFVIIAGIIGAFIAVETIPAHLAHPP”: “failed”. As to “MKTQITTRDLVLEFIHALNTENFPAAKKRLNENFTFNGPMGHREGSERYMNDMEKMKFKYVVHKMFEEGNDVCLIYDINMNGKTIAASGLYHLEKGEITSLHVYFDPRPLFEE”, the protein production result is recorded as “not failed”. “TIDPKAQKAAWDGLTDLKGARGAVVALDPQTGKVLAMVSAPSYDPSAFAGSTFKESDRFVELDKKKNKPLANRALRETYPPGSTFKILTAAAALEHGIVTDVDARTDAVSPYPLPQSTNKIGSEAGDAVCNKASMKTAMQHSCNNVFLDAASKLGQDKMRETAEKFGFNEDVYSDDFGDLLATKSLYPEDLDKPGTALTGMGQGSLTSTPMQMALVTAGIANDGKVMQPYVVDEVKGPDLDTLEKTEPAVMSEAVSAETAQKVQEMMEFTAKEGSARRAQIDGITVGGKTGTAQRGVDVNDEVPYGWFVSYGKKDDGSSVAVAVFIDPTDMDISRADISGGGLGAPIAKSVMKAVLK”: the protein production result is on record as “failed”. With “MTESTGSTSQEQQVRGETMPDWEKRFRAPRVSLPDWAEDAPHRALFVSNATGTYELYAWDRTTGEQRQVTDRPNGTTDGVLSPDGEWIWWFDDTDGDEFGIWRRQRFTGGGTADGPDEPAADGLEPSYPAGLAIGRDGGTAVVGRSTDEDGSTVHVVRAGQEPVEIYRHRESAGVGDLSHDGSLIAVEHTEHGDAMHSALRVLRLDGSTVAELDDTKGGSVELGLEVLGFAPVDGDTRLLIGHQRRGRWEPLVWDVASGEETDLALELPGDVGAEWYPDGSALLVAHSFEARSELFRYDLASRELVRVPTPAGTVSGATARPDGSVEYLWSSAAEPSVVRSTSGGIVLDPPGMKSPGSVPVEDVWVEGPGGRVHALVQRPAGASGPLPTVFDIHGGPTWHDSDSFAAGPAAWLDHGYAVVRVNYRGSTGYGREWTDALKHRVGLIELEDIAAVREWAVSSGLADPDRLILTGGSWGGYLTLLGLGTQPDAWTIGIAAVPVADYVTAYHDEMEALKAMDRTLLGGTPEEVPERFEASSPLTYVDAVKAPVYISAGVNDPRCPIRQVENYVERLTARDAVHEVYRYDAGHGSLVVDERIKQVRLELEFAERHLGR” the entry was “failed”. For the sequence “DILVFTPRKSDAGISVILYPGAFVDALSYAPLANKLASSGYKTYIAEMPLNLAVFGKNRAADIIDEAPDEKFVIGGHSLGGVMSSRFAHENESEIEGVFFLASYPDKKGSLKNASFPALSITGTKDDVLNKDAYDKNKKYLPKDTTFVSIEGGNHAQFGSYGAQHGDGKATISEAEQTDQVSNALIAWLNTSVKNQE”, the protein production result is listed as “not failed”.

In the case of “MSVVTESKTARKWAMPDTLVIIFFVAILTSIATWVVPVGMFDSQEVQYQVDGQTKTRKVVDPHSFRIVTNEAGEAQYHRVQFFTTGDERPGLMNFPFEGLTSGSKFGTAVGIIMFMLVIGGAFGIVMRTGTVDNGILALIRHTRGNEVLFIPVLFVLFSLGGAVFGMGKEAVAFAIIIAPLMVRLSYDSITTVLVTYIATQIGFASSWMNPFCVVVAQGIAGVPVLSGSGLRIVVWIVATLIGLVFTLVYASRVKKNPLLSRVHESDRYFREQQDEVVQRPFTFGDWLVLLVLTGVMIWVVWGVIVHAWFIPEIASQFFTMGVVIGLIGVIFRLNGMTVNVMASSFTEGARMMIAPALLVGFAKGILLLVGNGEAGEPSVLNTLLNSIAHGISGLNNAIAAWFMLLFQAVFNFFVTSGSGQAALTMPLLAPLGDLVGVNRQVTVLAFQFGDGFSHIIYPTSASLMATLGVCRVDFRNWLKVGASLLGLLFIMSSVVVIGAQMMGYH”, the protein production entry is “failed”. For the sequence “MQQVFNVSVPVPDDVVIISKEEYLNLLSDNEQGKWWDIDNLQELLGIGRSKLINDILLNPDIKKEVDLSINPNGFIVYPKGKGSRYKILATKARKYFEDNFGSILLNS”, the protein production result is “failed”.

As for “MKLAMIGFGQAGGKIVDKFLEYDKETGSGIVRSAVAVNTAKADLLGLEHIPEENRVLIGQARVKGHGVGADNELGAEIAEEDIDEVQGAIDNIPVHEVDAFLIVAGLGGGTGSGGSPVVAKHLKRIYTEPVYGLGVLPGSDEGGIYTLNAARSFQTFVREVDNLMVFDNDAWRQTGESVEGGYDHINEEIVRRFGVLFGAGEIEAGDNVAESVVDSSEIINTLDGGGVSTVGYASEDVEVSSGGGGLLSRFKGDDSSDDSMDTANTTNRITSLVRKAALGRLTLPCEIEGAERALLVMAGPPEHLNRKGIERGRKWLEEQTGSMEVRGGDYPTNAPKVAASILLAGVHNVPRIKELQQVAIEAQDNIDDIRNQSEDNLEDLVEDDEDELDPLF”, the protein production result is recorded as “failed”.

“MSNANPDTTAAEAHRRRTFAVIAHPDAGKSTLTEALALHAHIISEAGATHGKAGRKATVSDWMEMEKDRGISIASSALQFEYAPEGHAGEPFMINLVDTPGHADFSEDTYRVLMAVDAAVMLIDAAKGLEPQTLQLFRVCKARGLPIITVINKWDRVGRTPLELVDEIVKEIELQPTPLFWPVGEAGDFRGLARINNDGEVEEYIHFTRTAGGSTIAPEDFYTPEEAIEREGDVWENATEEAELLAADGAVHDQELFLNCTTSPLIFASAMLNFGVHQILDTLCQLAPSPAGRDADPKALEAATSAMDDHRDTTDDFSGVVFKVQAGMDKNHRDTLAFMRVVSGEFDRGMQVTHSQSGRSFSTKYALTVFGRTRSTVETAFPGDIVGLVNAGALAPGDTIFEGRKIQYPPMPKFAPEHFRILRAKSLGKYKQFRKALEQLDSEGVVQILKNDLRGDANPVMAAVGPMQFEVMQARMEVEYNVETVADPIPYSVARRTTAETAPELAKQRGVEIFTRTDGELIALFSDKWRLSFIEKEHPDFVLESLVAE”: the protein production entry was “failed”.
